Data from patent US20080032929A1.

Key:
[1] = target: bovine cardiac troponin T (bovine) (UniProt P13789)
[2] = target: bovine cardiac troponin I purified from ventricular muscle (bovine) (UniProt P08057); assay: ELISA solid phase protein binding: cTnT coated, serial dilutions of bovine cardiac TnI, detected with mAb TnI-1; concentration of TnI required to reach 50% of maximum binding
[3] = target: rabbit α-tropomyosin purified from ventricular muscle (rabbit) (UniProt P58772); assay: ELISA solid phase protein binding: cTnT coated, serial dilutions of rabbit α-tropomyosin, detected with mAb CH1; concentration of tropomyosin for 50% maximum binding

**Q.** For µ-calpain (Calbiochem) (enzyme), which relative amounts of intact and NH2-terminal truncated cTnT, densitometry of mAb CT3 Western blots of µ-calpain treated bovine cardiac myofibrils (% intact cTnT) [1] is on record?
**A.** 1.5

**Q.** Which EC50 [2] does the source give for “NH2-terminal truncated mouse cardiac troponin T (McTnT-ND72-291), reconstructed and expressed in E. coli (from UniProt P50752)” here?
**A.** 8.73 nM

**Q.** What about the EC50 [3] of the same substance?
**A.** 9.73 nM

**Q.** How did the EC50 [2] turn out when “intact mouse cardiac troponin T (TnT4), expressed in E. coli (from UniProt P50752)” was run?
**A.** 15.3 nM

**Q.** And the EC50 [3]?
**A.** 13.5 nM
